B1: SUGP1 (protein, UniProt Q8IWZ8 1-645, looked up)
SURP and G-patch …: MSLKMDNRDVAGKANRWFGVAPPKSGKMNMNILHQEELIAQKKREIEAKMEQKAKQNQVASPQPPHPGEITNAHNSSCISNKFANDGSFLQQFLKLQKAQTSTDAPTSAPSAPPSTPTPSAGKRSLLISRRTGLGLASLPGPVKSYSHAKQLPVAHRPSVFQSPDEDEEEDYEQWLEIKVSPPEGAETRKVIEKLARFVAEGGPELEKVAMEDYKDNPAFAFLHDKNSREFLYYRKKVAEIRKEAQKSQAASQKVSPPEDEEVKNLAEKLARFIADGGPEVETIALQNNRENQAFSFLYEPNSQGYKYYRQKLEEFRKAKASSTGSFTAPDPGLKRKSPPEALSGSLPPATTCPASSTPAPTIIPAPAAPGKPASAATVKRKRKSRWGPEEDKVELPPAELVQRDVDASPSPLSVQDLKGLGYEKGKPVGLVGVTELSDAQKKQLKEQQEMQQMYDMIMQHKRAMQDMQLLWEKAVQQHQHGYDSDEEVDSELGTWEHQLRRMEMDKTREWAEQLTKMGRGKHFIGDFLPPDELEKFMETFKALKEGREPDYSEYKEFKLTVENIGYQMLMKMGWKEGEGLGSEGQGIKNPVNKGTTTVDGAGFGIDRPAELSKEDDEYEAFRKRMMLAYRFRPNPLNNPRRPYY
B2: NOL8 (protein, UniProt Q76FK4 1-1167, looked up)
Nucleolar protein 8: MKVNRETKRLYVGGLSQDISEADLQNQFSRFGEVSDVEIITRKDDQGNPQKVFAYINISVAEADLKKCMSVLNKTKWKGGTLQIQLAKESFLHRLAQEREAAKAKKEESTTGNANLLEKTGGVDFHMKAVPGTEVPGHKNWVVSKFGRVLPVLHLKNQHKRKIIKYDPSKYCHNLKKIGEDFSNTIPISSLTWELEGGNDPMSKKRRGEFSDFHGPPKKIIKVQKDESSTGSLAMSTRPRRVIERPPLTQQQAAQKRTCDSITPSKSSPVPVSDTQKLKNLPFKTSGLETAKKRNSISDDDTDSEDELRMMIAKEENLQRTTQPSINESESDPFEVVRDDFKSGVHKLHSLIGLGIKNRVSCHDSDDDIMRNDREYDSGDTDEIIAMKKNVAKVKNSTEFSQMEKSTKKTSFKNRENCELSDHCIKLQKRKSNVESALSHGLKSLNRKSPSHSSSSEDADSASELADSEGGEEYNAMMKNCLRVNLTLADLEQLAGSDLKVPNEDTKSDGPETTTQCKFDRGSKSPKTPTGLRRGRQCIRPAEIVASLLEGEENTCGKQKPKENNLKPKFQAFKGVGCLYEKESMKKSLKDSVASNNKDQNSMKHEDPSIISMEDGSPYVNGSLGEVTPCQHAKKANGPNYIQPQKRQTTFESQDRKAVSPSSSEKRSKNPISRPLEGKKSLSLSAKTHNIGFDKDSCHSTTKTEASQEERSDSSGLTSLKKSPKVSSKDTREIKTDFSLSISNSSDVSAKDKHAEDNEKRLAALEARQKAKEVQKKLVHNALANLDGHPEDKPTHIIFGSDSECETEETSTQEQSHPGEEWVKESMGKTSGKLFDSSDDDESDSEDDSNRFKIKPQFEGRAGQKLMDLQSHFGTDDRFRMDSRFLETDSEEEQEEVNEKKTAEEEELAEEKKKALNVVQSVLQINLSNSTNRGSVAAKKFKDIIHYDPTKQDHATYERKRDDKPKESKAKRKKKREEAEKLPEVSKEMYYNIAMDLKEIFQTTKYTSEKEEGTPWNEDCGKEKPEEIQDPAALTSDAEQPSGFTFSFFDSDTKDIKEETYRVETVKPGKIVWQEDPRLQDSSSEEEDVTEETDHRNSSPGEASLLEKETTRFFFFSKNDERLQGSDLFWRGVGSNMSRNSWEARTTNLRMDCRKKHKDAKRKMKPK

Test system: BirA*-FLAG-GATAD1 variants in Flp-In-293 cells
Test: BioID proximity labelling of full-length GATAD1 variants (SILAC)
Format: cell-based, human
Conditions: GATAD1 WT vs S102P, significant proteins only; for Log2_Ratio.H.L.normalized.WT_S102P_forward: forward experiment (label swap performed, sign inverted against the H/L ratio); for Log2_Ratio.H.L.normalized.WT_S102P_forward / Log2_Ratio.H.L.normalized.WT_S102P_reverse: log2 of normalized H/L ratio; for Ratio.H.L.normalized.WT_S102P_forward: forward experiment; for Log2_Ratio.H.L.normalized.WT_S102P_reverse / Ratio.H.L.normalized.WT_S102P_reverse: reverse experiment
Description: The GATAD1 gene variants were ordered in a pTwist ENTR Kozak vector from Twist Bioscience. The genes were then transferred to a pDEST_pcDNA5_BirA_FLAG_Nterm vector[97] using the Gateway Clonase II system (Thermo Fisher Scientific). The resulting vectors, pEXPR_GATAD1-WT_N-term_BirA_FLAG, pEXPR_GATAD1-S102P_N-term_BirA_FLAG, pEXPR_GATAD1-S102D_N-term_BirA_FLAG, and pEXPR_GATAD1-S102A_N-term_BirA_FLAG, were used to generate tetracycline-inducible stable Flp-In^TM-293 T-REx cells. A 6-well plate was co-transfected with 0.5 µg of the pEXPR plasmid and 1 µg of the pOG44 Flp-recombinase expression vector (Thermo Fisher Scientific) using 4.5 µg of PEI (Polysciences) as a transfection reagent. The following day, the cells were trypsinized and transferred to a 10 cm dish containing DMEM supplemented with 10% FCS and 200 µg/ml hygromycin B (Invivogen) for selection. The cells were cultured for approximately 18 days with media exchange every 3 days until visible colonies were observed. After around 18 days, the colonies were trypsinized and transferred to another 10 cm dish for further characterization and experiments.
Stable Flp-In^TM-293 cell lines expressing GATAD1 variants were cultured using SILAC light (Lys0, Arg0) and SILAC heavy (Lys8, Arg10) media, as explained in the cell culture section. After full labeling, cells were split into 15 cm dishes and were treated with 1 μg/mL tetracycline for 24 h to induce the expression of GATAD1. After the induction period, cells were incubated with 50 μM biotin overnight for proximity biotinylation. As a control, wild-type GATAD1 cells, without biotin or tetracycline addition, were used. Samples were multiplexed, as shown in Supplementary Fig. 41A with both forward and reverse label swap (n = 2). Cells were then lysed in lysis buffer (50 mM Tris-HCl pH 7.5, 150 mM NaCl, 1% Triton X-100, 1 mM EDTA, 1 mM EGTA, 0.1% SDS) with freshly added protease inhibitors and 1% sodium deoxycholate. To digest the excess DNA, 1 μl of Benzonase was added, and the samples were incubated for 20 min at 37 °C. Biotinylated proteins were enriched for 3 h at 4 °C using streptavidin-sepharose beads (GE Cat# 17-5113-01). Beads were pre-washed twice with 0.01% BSA and twice with lysis buffer. After enrichment, the beads were washed one time with lysis buffer, two times with washing buffer (50 mM HEPES-KOH pH 8.0, 100 mM KCl, 10% glycerol, 2 mM EDTA, 0.1% NP-40), and six times with 50 mM ammonium bicarbonate. Beads were resuspended in ammonium bicarbonate, and an on-bead protein digest with 1 μg of trypsin followed overnight. The next day, the digested proteins were transferred to a fresh tube and were incubated with 10 mM DTT for 30 min at 37 °C and with 55 mM iodoacetamide for 20 min at 37 °C in the dark. Samples were desalted with StageTips.
Peptides were separated using reversed-phase liquid chromatography (EASY nLC II 1200, Thermo Fisher Scientific) with self-made C18 microcolumns (20 cm long) packed with ReproSil-Pur C18-AQ 1.9 μm resin (Dr. Maisch, cat# r119.aq.0001). The chromatography system was coupled online to the electrospray ion source (Proxeon) of an Orbitrap Exploris 480 mass spectrometer (Thermo Fisher Scientific). The mobile phase consisted of buffer A (0.1% formic acid and 5% acetonitrile) and buffer B (0.1% formic acid and 80% acetonitrile). Peptides were eluted using a gradient with increasing concentrations of buffer B over 110 minutes, at a flow rate of 250 nl/min. Mass spectrometry data was acquired in data-dependent mode with settings for one full scan (resolution: 60,000; m/z range: 350–1600; normalized AGC target: 300%; maximum injection time: 10 ms), followed by top 20 MS/MS scans using higher-energy collisional dissociation (resolution: 15,000; m/z range: 200–2000; normalized AGC target: 100%; maximum injection time: 120 ms; isolation width: 1.3 m/z; normalized collision energy: 28%).
Raw files were analyzed with MaxQuant, version 2.0.3.0. […]

| Molecule | Log2_Ratio.H.L.normalized.WT_S102P_forward | Ratio.H.L.normalized.WT_S102P_forward | Log2_Ratio.H.L.normalized.WT_S102P_reverse | Ratio.H.L.normalized.WT_S102P_reverse |
| --- | --- | --- | --- | --- |
| B1 | 1.6946 | 0.3089 | 1.162 | 2.2378 |
| B2 | 1.703 | 0.3071 | 1.269 | 2.4103 |

Reference: paper PMC11009412, “Pathogenic mutations of human phosphorylation sites affect protein–protein interactions” (Nature Communications, 2024)
